Experimental findings from patent US20190218277A1 (Chugai, published 2019) are described below.

One test has as its target T1, human FcγRIa (human, UniProt P12314 16-292).
T1 construct: also called human FcγR1a
Kind of test: SPR (Biacore T200, pH 7.4, 25 °C): His-tagged FcγR captured by anti-His antibody; antibody injected at 100 nM alone (Ab alone) or as 1:1 complex with trimeric CD154 (CD154 IC); binding level / capture level [A]. In general terms: Surface plasmon resonance follows binding to a sensor surface in real time, without labels.

Test [1] deals with mouse C1q (from 10% mouse plasma) (mouse, UniProt P98086 23-245; P14106 26-253; Q02105 30-246). Kind of test: ELISA: antibody coated on the plate at the concentration shown, 10% mouse plasma added, detected with biotinylated anti-mouse C1q and streptavidin-HRP, OD 405 nm.
Another test deals with human C1q (Calbiochem) (human, UniProt P02745 23-245; P02746 28-253; P02747 29-245). As to the kind of experiment: ELISA: antibody coated on the plate at the concentration shown, human C1q added, detected with HRP anti-human C1q, OD 450 nm. Background: ELISA stands for enzyme-linked immunosorbent assay.
Another test has as its target T2, human FcγRIIIa (158V) (human, UniProt P08637 17-208).
T2 construct: also called human FcγR3a allelic variant 158V
As to the kind of experiment: SPR (Biacore T200, pH 7.4, 25 °C): His-tagged FcγR captured by anti-His antibody; antibody injected at 100 nM alone (Ab alone) or as 1:1 complex with trimeric CD154 (CD154 IC); binding level / capture level [F].

Test [2] deals with T3, Recombinant soluble E protein (0.8E-His) from DENV-4 (DENV-4, UniProt P09866 280-674).
T3 construct: also called DENV-4 E protein; DV4

Test [3] has as its target T4, Recombinant soluble E protein (0.8E-His) from DENV-2 (DENV-2, UniProt P14340 281-675).
T4 construct: also called DENV-2 E protein; DV2

Test [4] deals with T5, Recombinant soluble E protein (0.8E-His) from DENV-1 (DENV-1, UniProt P27909 281-675).
T5 construct: also called DENV-1 E protein; DV1

In test [5] the target is T6, Recombinant soluble E protein (0.8E-His) from DENV-3 (DENV-3, UniProt P27915 281-673).
T6 construct: also called DENV-3 E protein; DV3
Kind of test: SPR, Biacore T200.

Sequence of human C1q (Calbiochem) (P02745 23-245 limits assumed, chain 1 of 3): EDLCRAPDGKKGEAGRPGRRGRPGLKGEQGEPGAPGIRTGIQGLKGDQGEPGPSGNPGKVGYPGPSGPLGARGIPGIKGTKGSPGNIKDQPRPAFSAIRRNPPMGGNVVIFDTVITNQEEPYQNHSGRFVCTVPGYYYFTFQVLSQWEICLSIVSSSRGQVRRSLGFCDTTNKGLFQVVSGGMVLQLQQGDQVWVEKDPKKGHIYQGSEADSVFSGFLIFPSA
Sequence of human C1q (Calbiochem) (P02746 28-253 limits assumed, chain 2 of 3): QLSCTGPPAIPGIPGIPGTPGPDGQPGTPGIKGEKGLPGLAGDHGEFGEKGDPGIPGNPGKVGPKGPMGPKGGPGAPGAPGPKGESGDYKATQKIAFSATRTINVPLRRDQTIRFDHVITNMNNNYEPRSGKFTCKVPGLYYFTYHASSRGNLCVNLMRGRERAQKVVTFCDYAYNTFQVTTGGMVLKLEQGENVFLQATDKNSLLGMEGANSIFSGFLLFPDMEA
Sequence of human C1q (Calbiochem) (P02747 29-245 limits assumed, chain 3 of 3): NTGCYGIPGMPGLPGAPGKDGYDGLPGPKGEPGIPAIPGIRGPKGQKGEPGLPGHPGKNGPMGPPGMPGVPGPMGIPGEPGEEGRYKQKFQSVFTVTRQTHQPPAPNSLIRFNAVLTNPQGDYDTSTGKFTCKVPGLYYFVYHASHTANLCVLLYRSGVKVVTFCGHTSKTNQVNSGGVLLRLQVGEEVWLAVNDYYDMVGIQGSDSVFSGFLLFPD
T1 sequence (P12314 16-292 limits assumed): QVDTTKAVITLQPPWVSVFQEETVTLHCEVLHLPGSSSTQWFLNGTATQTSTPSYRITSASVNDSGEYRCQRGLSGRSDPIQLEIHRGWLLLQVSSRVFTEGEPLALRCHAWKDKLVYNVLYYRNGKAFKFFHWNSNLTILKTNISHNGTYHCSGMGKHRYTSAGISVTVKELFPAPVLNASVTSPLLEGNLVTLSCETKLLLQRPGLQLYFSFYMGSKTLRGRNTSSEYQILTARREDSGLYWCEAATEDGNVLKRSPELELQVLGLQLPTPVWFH
T2 sequence (P08637 other isoform, or with tags, fused parts or gaps limits assumed): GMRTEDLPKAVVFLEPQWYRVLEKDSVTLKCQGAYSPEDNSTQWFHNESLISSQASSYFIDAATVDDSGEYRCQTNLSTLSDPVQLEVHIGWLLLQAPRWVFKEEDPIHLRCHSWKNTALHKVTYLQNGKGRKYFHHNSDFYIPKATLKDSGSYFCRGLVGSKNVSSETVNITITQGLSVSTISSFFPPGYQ
Sequence of mouse C1q (from 10% mouse plasma) (P98086 23-245 limits assumed, chain 1 of 3): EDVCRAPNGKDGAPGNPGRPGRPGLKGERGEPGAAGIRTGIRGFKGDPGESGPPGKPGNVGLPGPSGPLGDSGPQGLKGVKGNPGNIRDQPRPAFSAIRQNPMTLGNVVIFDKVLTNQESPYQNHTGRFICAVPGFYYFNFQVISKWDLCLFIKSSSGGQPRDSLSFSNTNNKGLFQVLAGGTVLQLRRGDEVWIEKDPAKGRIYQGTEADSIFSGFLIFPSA
Sequence of mouse C1q (from 10% mouse plasma) (P14106 26-253 limits assumed, chain 2 of 3): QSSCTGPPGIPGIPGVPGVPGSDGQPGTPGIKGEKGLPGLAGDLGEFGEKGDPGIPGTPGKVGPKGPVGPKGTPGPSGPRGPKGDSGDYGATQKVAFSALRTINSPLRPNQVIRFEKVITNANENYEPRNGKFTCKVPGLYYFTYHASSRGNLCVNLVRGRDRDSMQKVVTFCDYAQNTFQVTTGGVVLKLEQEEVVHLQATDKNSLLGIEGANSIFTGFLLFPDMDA
Sequence of mouse C1q (from 10% mouse plasma) (Q02105 30-246 limits assumed, chain 3 of 3): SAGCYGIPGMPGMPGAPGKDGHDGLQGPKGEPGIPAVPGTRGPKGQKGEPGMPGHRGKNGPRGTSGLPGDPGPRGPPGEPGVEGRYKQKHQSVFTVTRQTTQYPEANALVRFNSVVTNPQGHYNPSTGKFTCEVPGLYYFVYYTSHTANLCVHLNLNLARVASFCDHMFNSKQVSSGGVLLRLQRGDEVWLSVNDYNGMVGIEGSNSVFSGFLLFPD

B1: Anti-CD154 antibody (SLAPH0336a/SLAPL0336a) with Fc variant LALA+KAES (SG1095) (antibody, human IgG1, kappa, L234A L235A)
heavy: EVQLVESGGGSVKPGGSLKLSCAASGFTFSDHYMYWVRQTPEKRLEWVAIISGGGSYTSYPDSMKGRFTISRDNAKNILHLQMSSLKSEDTAMYYCTRESNGKPGFAYWGQGTLVTVSAASTKGPSVFPLAPSSKSTSGGTAALGCLVKDYFPEPVTVSWNSGALTSGVHTFPAVLQSSGLYSLSSVVTVPSSSLGTQTYICNVNHKPSNTKVDKRVEPKSCDKTHTCPPCPAPEAAGGPSVFLFPPKPKDTLMISRTPEVTCVVVDVSHEDPEVKFNWYVDGVEVHNAKTKPREEQYNSTYRVVSVLTVLHQDWLNGKEYKCKVSNAALPAPISKTISKAKGQPREPQVYTLPPSREEMTKNQVSLTCLVKGFYPSDIAVEWESNGQPENNYKTTPPVLDSDGSFFLYSKLTVDKSRWQQGNVFSCSVMHEALHNHYTQKSLSLSP
light: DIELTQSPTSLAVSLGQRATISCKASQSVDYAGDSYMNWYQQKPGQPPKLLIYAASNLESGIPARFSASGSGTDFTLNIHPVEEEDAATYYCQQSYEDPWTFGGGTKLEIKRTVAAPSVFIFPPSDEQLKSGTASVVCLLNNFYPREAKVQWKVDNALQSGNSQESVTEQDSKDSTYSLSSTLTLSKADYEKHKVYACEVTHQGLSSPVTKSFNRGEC
Take B1: the binding result (with human FcγRIa; in test [1]; in the test with human C1q (Calbiochem); in the test with human FcγRIIIa (158V)) was “binds” throughout.

B2: Anti-CD154 antibody (SLAPH0336a/SLAPL0336a) with Fc variant LALA+KMES (SG1098) (antibody, human IgG1, kappa, L234A L235A)
heavy: EVQLVESGGGSVKPGGSLKLSCAASGFTFSDHYMYWVRQTPEKRLEWVAIISGGGSYTSYPDSMKGRFTISRDNAKNILHLQMSSLKSEDTAMYYCTRESNGKPGFAYWGQGTLVTVSAASTKGPSVFPLAPSSKSTSGGTAALGCLVKDYFPEPVTVSWNSGALTSGVHTFPAVLQSSGLYSLSSVVTVPSSSLGTQTYICNVNHKPSNTKVDKRVEPKSCDKTHTCPPCPAPEAAGGPSVFLFPPKPKDTLMISRTPEVTCVVVDVSHEDPEVKFNWYVDGVEVHNAKTKPREEQYNSTYRVVSVLTVLHQDWLNGKEYKCKVSNMALPAPISKTISKAKGQPREPQVYTLPPSREEMTKNQVSLTCLVKGFYPSDIAVEWESNGQPENNYKTTPPVLDSDGSFFLYSKLTVDKSRWQQGNVFSCSVMHEALHNHYTQKSLSLSP
light: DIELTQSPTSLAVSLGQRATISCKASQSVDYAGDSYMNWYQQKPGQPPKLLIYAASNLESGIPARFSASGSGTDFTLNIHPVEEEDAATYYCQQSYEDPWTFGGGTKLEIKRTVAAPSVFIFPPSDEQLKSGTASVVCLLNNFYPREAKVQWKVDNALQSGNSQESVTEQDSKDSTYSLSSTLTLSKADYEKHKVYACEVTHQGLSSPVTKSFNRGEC
As to B2, the binding result with human C1q (Calbiochem) is “binds”.

B3: LALA + KDES (antibody, human IgG1, kappa, L234A L235A)
heavy chain: EVQLVESGGGSVKPGGSLKLSCAASGFTFSDHYMYWVRQTPEKRLEWVAIISGGGSYTSYPDSMKGRFTISRDNAKNILHLQMSSLKSEDTAMYYCTRESNGKPGFAYWGQGTLVTVSAASTKGPSVFPLAPSSKSTSGGTAALGCLVKDYFPEPVTVSWNSGALTSGVHTFPAVLQSSGLYSLSSVVTVPSSSLGTQTYICNVNHKPSNTKVDKRVEPKSCDKTHTCPPCPAPEAAGGPSVFLFPPKPKDTLMISRTPEVTCVVVDVSHEDPEVKFNWYVDGVEVHNAKTKPREEQYNSTYRVVSVLTVLHQDWLNGKEYKCKVSNDALPAPISKTISKAKGQPREPQVYTLPPSREEMTKNQVSLTCLVKGFYPSDIAVEWESNGQPENNYKTTPPVLDSDGSFFLYSKLTVDKSRWQQGNVFSCSVMHEALHNHYTQKSLSLSP
light chain: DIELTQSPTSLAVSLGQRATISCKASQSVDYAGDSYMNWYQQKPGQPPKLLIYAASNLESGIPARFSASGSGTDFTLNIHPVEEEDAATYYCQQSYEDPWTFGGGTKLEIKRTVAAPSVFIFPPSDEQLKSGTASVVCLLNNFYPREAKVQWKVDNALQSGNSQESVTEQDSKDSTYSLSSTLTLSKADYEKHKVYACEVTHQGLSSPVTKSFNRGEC
notes: also called Anti-CD154 antibody (SLAPH0336a/SLAPL0336a) with Fc variant LALA+KDES (SG1096); SG1096
With B3, the binding result with human C1q (Calbiochem) was “binds”.

B4: DG_3CH912-SG182/3CL-SK1 (antibody, human IgG1, kappa, V domains shown)
VH: QVQLVQSGPDVEKPGASVKVSCKASGYTFTSNYIHWVRQAPGQGLEWMGVINPRGGSRASAQKFQGRITMTRDTSTSTVYMELSSLRSEDTAVYYCARGGRALFYDSYTTPFDGGSWWFDPWGQGSLVTVSS
VL: DIQLTQSPSSLSASVGDRVTFTCQASQDIRKYLNWYQQKPGKAPKLLIYDASNLKTGVPSRFSGSGSGTDFTFTISSLQPEDVATYYCQQFDDLPITFGQGTRLQIKR
The term Kd denotes the constant that tells how readily two partners part at equilibrium. In the case of B4, the equilibrium dissociation constant (Kd) was 8.78 nM in test [2], 0.811 nM in test [3] and 1.85 nM in test [4]. In test [5], the binding result is given as “binds”.

B5: DG_3CH955-SG182/3CL499-SK1 (antibody, human IgG1, kappa, V domains shown)
VH: QVQLVQSGPDVEKPGASVKVSCKASGYTFTSNYIHWVRQAPGQGLEWMGVINPRGGSRRSAQKFQGRITMTRDTSTSTVYMELSSLRSEDTAVYYCARGGRALFYDSYTTPRDLGSWWFDPWGQGSLVTVSS
VL: DIQLTQSPSSLSASVGDRVTFTCQASQDIRKYLNWYQQKPGKAPKLLIYDASNLKFGVPSRFSGSGSGTDFTFTISSLQPEDVATYYCQQFDALPITFGQGTRLQIKR
For the molecule B5, the Kd in test [2] is 8.26 nM; in test [3], 1.03 nM; in test [4] it was 1.26 nM. The binding result in test [5] is “binds”.

B6: DG_3CH955-SG182/3CL563-SK1 (antibody, human IgG1, kappa, V domains shown)
VH: QVQLVQSGPDVEKPGASVKVSCKASGYTFTSNYIHWVRQAPGQGLEWMGVINPRGGSRRSAQKFQGRITMTRDTSTSTVYMELSSLRSEDTAVYYCARGGRALFYDSYTTPRDLGSWWFDPWGQGSLVTVSS
VL: DIQLTQSPSSLSASVGDRVTFTCQASQDIRQYLNWYQQKPGKAPKLLIYDASNLKFGVPSRFSGSGSGTDFTFTISSLQPEDVATYYCQQFSALPITFGQGTRLQIKR
Turning to B6, the Kd in test [2] was determined as 12.2 nM; in test [3], 1.04 nM; in test [4], 1.91 nM. Moreover, the binding result in test [5] is given as “binds”.

B7: DG_3CH953-SG182/3CL563-SK1 (antibody, human IgG1, kappa, V domains shown)
VH: QVQLVQSGPDVEKPGASVKVSCKASGYTFTSNYIHWVRQAPGQGLEWMGVINPRGGSRRSAQKFQGRITMTRDTSTSTVYMELSSLRSEDTAVYYCARGGRALFYDSYTTPFDGGSWWFDPWGQGSLVTVSS
VL: DIQLTQSPSSLSASVGDRVTFTCQASQDIRQYLNWYQQKPGKAPKLLIYDASNLKFGVPSRFSGSGSGTDFTFTISSLQPEDVATYYCQQFSALPITFGQGTRLQIKR
Consider B7, for which the Kd in test [2] was 8.21 nM; in test [3], 0.922 nM; in test [4], 1.88 nM. For the same molecule, the binding result in test [5] is “binds”.
